Where two headings read alike, the source gives them in different places.
What was measured:
[1] = Stability testing of peptides at pH 4.5 (sodium acetate buffer), HPLC Method B; format: physicochemical
Method: (§1) Analytical high performance liquid chromatography (HPLC) was performed on a Dionex UltiMate 3000 HPLC system with a Bruker amazon SL ion trap mass spectrometer and detection by UV (diode array detector, 214, 254, and 280 nm) and electrospray ionization (ESI) MS using a Penomenex Kinetex C18 column (50×3.0 mm, 2.6 μm particle size, 100 Åpore size) and a Penomenex Kinetex Biphenyl column (50×4.6 mm, 2.6 μm particle size, 100 Åpore size). A gradient of H2O/CH3CN/0.05% HCOOH was used at a flow rate of 1.5 mL/min.
Method B: Detection at 214 nm
For the peptides stored in sodium acetate buffer (pH 4.5, 100 mM) the solutions were analyzed by HPLC (analytical HPLC Method B) after 0 h, and 1 day incubation at 4° C. and 23° C.
(§2) The “% Purity” at each time point is defined by the % Relative purity at time point “n” (n=1 day, 7 days, 14 days in pH 7.4 PBS and 1 day at pH 4.5 NaAc) in relation to the % Relative purity at t0 following the equation:
% Purity at tn=[(% Relative purity tn)×100)]/% Relative purity t0
Samples were incubated for 1 day at 23° C. and 4° C. and were analyzed using HPLC Method B.

[2] = Stability testing of peptides at pH 7.4 (PBS), HPLC Method A; format: physicochemical
Method: as §1
Method A: Detection at 214 nm column: Penomenex Kinetex C18 (50×3.0 mm, 2.6 μm particle size, 100 Åpore size) solvent: H2O+0.05% HCOOH: CH3CN+0.05% HCOOH (flow 1.5 ml/min) […]
(§3) For stability testing, 500 μmol pure compound was dissolved in 1 mL PBS buffer (pH 7.4), or 1 mL sodium acetate buffer (pH 4.5, 100 mM). For the peptides stored in PBS, the solutions were stored for 14 days at 4° C. and 23° C. At 0 h, 1 day, 7 days and 14 days, the solutions were analyzed by HPLC (analytical HPLC Method A and Method B).
as §2
(§4) % Purity at tn=[(% Relative purity tn)×100)]/% Relative purity t0 […]
Samples were incubated up to 14 days at 23° C. and 4° C. and were analyzed using HPLC Method A.

[3] = Stability testing of peptides at pH 7.4 (PBS), HPLC Method B; format: physicochemical
Method: as §1
Method B: Detection at 214 nm column: Penomenex Kinetex Biphenyl column (50×4.6 mm, 2.6 μm particle size, 100 Åpore size) solvent: H2O+0.05% HCOOH: CH3CN+0.05% HCOOH (flow 1.5 ml/min) […]
as §3, §2, §4
Samples were incubated up to 14 days at 23° C. and 4° C. and were analyzed using HPLC Method B.

in vivo = experiment: in vivo; design: species or system Sprague Dawley rats; conditions: rat
Method: Sprague Dawley rats (obtained from Taconic, n=22, male, healthy, weight 287±25 g) were used for ex vivo organ distribution assessment of biodistribution and dosimetry.
Five MBq of [^68Ga]Ga-1 (n=10) (corresponding to 5-10 μg) in phosphate-buffered saline (PBS, pH 7.4) was injected intravenously as a bolus to conscious rats. The animals were euthanized by a CO2—O2 mixture 10, 20, 40, 60 and 120 minutes post-injection. The radioactivity of the excised organs was measured in a gamma counter. Samples from blood, heart, lung, liver, spleen, adrenal glands, kidneys, intestines, with or without contents, muscle, testis, bone, brain, pancreas, urine bladder and bone marrow were collected. The remaining carcass was also measured in order to monitor the radioactivity elimination and recovery. The radioactivity readings were decay-corrected to the time of the injection, and the results were expressed as standardized uptake values (SUV).
The biodistribution of [^68Ga]Ga-1 ([^68Ga]Ga—NH—(CH2CH2O)2—CH2—C(O)-LRELHLNNN—OH) was carried out as described above.

[4] = mouse, in vivo; cited from earlier work
[5] = rat, in vivo; cited from earlier work
[6] = male, Sprague Dawley, iv, 5 MBq, total radioactivity

Compound	% Purity after 1 day ([1]; 4° C.) [%]	% Purity after 1 day ([1]; 23° C.) [%]	% Purity after 1 day ([2]; 4° C.) [%]	% Purity after 7 days ([2]; 4° C.) [%]	% Purity after 1 day ([2]; 23° C.) [%]	% Purity after 7 days ([2]; 23° C.) [%]	% Purity after 1 day ([3]; 4° C.) [%]	% Purity after 7 days ([3]; 4° C.) [%]	% Purity after 1 day ([3]; 23° C.) [%]	% Purity after 7 days ([3]; 23° C.) [%]	other results
CC(C)C[C@H](NC(=O)COCCOCCNC(=O)CN1CCN(CC(=O)O)CCN(CC(=O)O)CCN(CC(=O)O)CC1)C(=O)N[C@@H](CCCNC(=N)N)C(=O)N[C@@H](CCC(=O)O)C(=O)N[C@@H](CC(C)C)C(=O)N[C@@H](Cc1c[nH]cn1)C(=O)N[C@@H](CC(C)C)C(=O)N[C@@H](CC(N)=O)C(=O)N[C@@H](CC(N)=O)C(=O)N[C@@H](CC(N)=O)C(=O)O [Compound 1, DOTA-NH—(CH2CH2O)2—CH2—C(O)-L-R-E-L-H-L-N—N—N—OH]	>95	>96	>99	>99	>99	>98	100	>98	>99	>98	% Purity after 14 days ([2]; 4° C.): >99%; % Purity after 14 days ([2]; 23° C.): >97%; % Purity after 14 days ([3]; 4° C.): >96%; % Purity after 14 days ([3]; 23° C.): >97%
CC(C)C[C@H](NC(=O)COCCOCCNC(=O)CN1CCN(CC(=O)O)CCN(CC(=O)O)CCN(CC(=O)O)CC1)C(=O)N[C@@H](CCCNC(=N)N)C(=O)N[C@@H](CCC(=O)O)C(=O)N[C@@H](CC(C)C)C(=O)N[C@@H](Cc1c[nH]cn1)C(=O)N[C@@H](CC(C)C)C(=O)N[C@@H](CC(N)=O)C(=O)N[C@@H](CC(N)=O)C(=O)N[C@@H](CC(N)=O)C(=O)O [[^68Ga]Ga-1, [^68Ga]Ga-DOTA-NH—(CH2CH2O)2—CH2—C(O)-LRELHLNNN—OH, metal not drawn]											SUV at 1 h (in vivo; [6]): < 1 SUV; SUV at 2 h (in vivo; [6]): 1 SUV; SUV Kidney (in vivo): 1.7; SUV Liver (in vivo): 0.7
DOTA-L-R-E-L-H-L-N—N—N—OH [Compound 12]	>98	>98	>99	>99	>99	>96	>99	>99	>99	>95	
DOTA-NH—(CH2CH2O)2—CH2—C(O)-L-R-E-L-H—V-N—N—N—OH [Compound 6]	>99	>99	>99	>99	100	>99	>99	>99	>99	>99	
DOTA-NH—(CH2CH2O)3—CH2—C(O)-L-R-E-L-H-L-N—N—N—OH [Compound 11]	>99	>98	>99	>97	>99	>96	>99	>99	>99	>99	
H2N-L-R-E-L-H-L-N—N—N—K(DOTA-NH—(CH2CH2O)2—CH2—C(O))—NH2 [Compound 13]	>99	>99	100	100	100	100	>99	>99	>99	>99	
[^68Ga]Ga-DOTA-CBP8 [Comparative Tracer 1]											SUV Kidney [4]: 10; SUV Liver [4]: 0.4
[^68Ga]Ga-NODAGA-Collagelin [Comparative Tracer 3]											SUV Kidney [5]: 11.1; SUV Liver [5]: 0.8
[^68Ga]Ga-NOTA-Collagelin [Comparative Tracer 2]											SUV Kidney [4]: 10; SUV Kidney [5]: 6.2; SUV Liver [5]: 0.5

Reference: patent publication US20230295227A1, “COMPOUNDS FOR USE IN DIAGNOSIS AND/OR MONITORING OF FIBROSIS” (ANTAROS TRACER AB, priority 2020, published 2023)
